# Data taken from the RNAGym collection of RNA variant scans (doi:10.7554/elife.80360).
# B1: CPEB3 Ribozyme (parent)
# chain: GGGGGCCACAGCAGAAGCGUUCACGUCGCGGCCCCUGUCAGAUUCUGGUGAAUCUGCGAAUUCUGCUGU
# Variants of: B1
# Experiment: self-cleavage, relative activity (ratio to wild type); higher = more cleavage; co-transcriptional
row,Variant,self-cleavage
1,G4C U43G,0.26
2,G4C G17A,0.0822
3,G4C G17U,0.0737
4,G4C G41U,0.159
5,G3U U20G,0.0082
6,G3U U20C,0.0468
7,G4A C39G,0.717
8,G3U C12G,0.0607
9,G3U C12U,0.169
10,G3U C57G,0.0443
11,G3C U20C,0
12,G3C G5C,0.0475
13,G3C U62A,0.0658
14,G3A C34U,0.91
15,G4C C6U,0.132
16,G4C U61A,0.147
17,G4A C45G,0.691
18,G3U U46A,0.162
19,G4C C33U,0.804
20,G4C C33G,0.98
21,G4C C33A,0.989

row,Variant,self-cleavage
1,G3C U26A,0.0495
2,G3A G47A,0.65
3,G4U A15C,0.138
4,G4U A15G,0.678
5,G4C A60G,0.235
6,G4C A60C,0.188
7,G3U C7G,0.0286
8,G3C G50U,0.133
9,G3C G50C,0.0988
10,G3C G58C,0.0803
11,G3C C12G,0.0121
12,G3C C9U,0.441
13,G3A U49C,0.705
14,G4U A16G,0.444
15,G4U A16C,0.0815
16,G4C A10G,0.748
17,G4C A10C,0.844
18,G4C G5A,0.0843
19,G4A A23C,0.573
20,G3U G11A,0.125
21,G3U G11U,0.0744

row,Variant,self-cleavage
1,G3A C9U,0.886
2,G3C C45G,0.0888
3,G3C C63G,0.0687
4,G3C C63U,0.171
5,G3A C63U,0.627
6,G3U C66A,0.0783
7,G3U C18U,0.0757
8,G3U C18A,0.0631
9,G3U C18G,0.0415
10,G3U U62C,0.0865
11,G3A A52C,0.577
12,G4A C29A,0.226
13,G3A G56C,0.253
14,G4A C33U,0.968
15,G4A C33A,0.897
16,G3U G25U,0.0356
17,G3U G25A,0.046
18,G3U A23U,0.344
19,G3U A23C,0.135
20,G4A U38C,0.699
21,G4A A13G,0.88

row,Variant,self-cleavage
1,G4A G56A,0.604
2,G4C C57G,0.15
3,G4C C57U,0.234
4,G3C C32G,0.0514
5,G3C C32U,0.0592
6,G3A C45G,0.536
7,G3A C45A,0.544
8,G3U A42G,0.11
9,G3U A42C,0.0373
10,G3U A42U,0.0748
11,G3A G25C,0.0661
12,G3A G25A,0.0615
13,G3C G48A,0.117
14,G4C G50U,0.637
15,G3C A13G,0.18
16,G3A C6G,0.0163
17,G3A C6A,0.0773
18,G3A C6U,0.245
19,G4A G17U,0.145
20,G3C A51U,0.115
21,G4C U55G,0.231
